Data from US20200231684A1 (published 2020).

T1: human IL-36R on cells (human, UniProt Q9HB29 20-575)
T1 sequence (looked up): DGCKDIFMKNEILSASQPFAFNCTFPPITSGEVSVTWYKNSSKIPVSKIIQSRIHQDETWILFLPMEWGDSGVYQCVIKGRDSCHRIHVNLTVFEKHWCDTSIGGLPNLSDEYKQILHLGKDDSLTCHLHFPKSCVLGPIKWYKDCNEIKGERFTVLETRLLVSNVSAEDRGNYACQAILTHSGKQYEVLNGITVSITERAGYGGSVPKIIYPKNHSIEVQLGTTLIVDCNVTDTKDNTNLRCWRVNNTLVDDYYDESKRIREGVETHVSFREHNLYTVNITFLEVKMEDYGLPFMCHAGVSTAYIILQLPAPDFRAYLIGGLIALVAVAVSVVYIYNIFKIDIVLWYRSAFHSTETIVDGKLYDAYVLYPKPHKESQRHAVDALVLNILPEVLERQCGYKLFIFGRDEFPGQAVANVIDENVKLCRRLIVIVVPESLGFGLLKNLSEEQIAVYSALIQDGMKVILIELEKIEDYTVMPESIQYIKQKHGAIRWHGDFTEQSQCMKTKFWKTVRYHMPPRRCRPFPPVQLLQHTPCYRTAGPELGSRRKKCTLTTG

T2: recombinant human IL-36R (ECD) (human, UniProt Q9HB29 20-332)
T2 construct: range 20-332; also called IL-1RL2; IL-1Rrp2
T2 sequence (looked up): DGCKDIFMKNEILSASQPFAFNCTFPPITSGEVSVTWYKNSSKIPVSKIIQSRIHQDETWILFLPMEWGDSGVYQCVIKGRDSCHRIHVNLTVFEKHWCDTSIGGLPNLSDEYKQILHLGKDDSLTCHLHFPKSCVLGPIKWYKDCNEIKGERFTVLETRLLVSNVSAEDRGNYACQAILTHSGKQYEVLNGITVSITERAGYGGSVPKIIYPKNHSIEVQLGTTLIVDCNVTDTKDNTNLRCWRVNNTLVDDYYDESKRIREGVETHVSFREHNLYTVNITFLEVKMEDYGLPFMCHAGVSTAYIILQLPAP

T3: mouse IL-36R (mouse, UniProt Q9ERS7 22-338)
T3 sequence (looked up): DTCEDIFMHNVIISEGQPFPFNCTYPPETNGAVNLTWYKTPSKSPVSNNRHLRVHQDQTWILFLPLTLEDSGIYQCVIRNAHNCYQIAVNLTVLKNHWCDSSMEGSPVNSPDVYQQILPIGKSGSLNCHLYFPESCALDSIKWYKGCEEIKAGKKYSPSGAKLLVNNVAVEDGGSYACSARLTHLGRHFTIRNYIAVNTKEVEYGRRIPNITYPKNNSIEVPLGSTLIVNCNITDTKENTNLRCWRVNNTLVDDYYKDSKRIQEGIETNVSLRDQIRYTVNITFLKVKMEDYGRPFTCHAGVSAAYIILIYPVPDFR

T4: human IL-1R1 (human, UniProt P14778 18-336, limits assumed)
T4 construct: also called IL-1RI
T4 sequence (looked up): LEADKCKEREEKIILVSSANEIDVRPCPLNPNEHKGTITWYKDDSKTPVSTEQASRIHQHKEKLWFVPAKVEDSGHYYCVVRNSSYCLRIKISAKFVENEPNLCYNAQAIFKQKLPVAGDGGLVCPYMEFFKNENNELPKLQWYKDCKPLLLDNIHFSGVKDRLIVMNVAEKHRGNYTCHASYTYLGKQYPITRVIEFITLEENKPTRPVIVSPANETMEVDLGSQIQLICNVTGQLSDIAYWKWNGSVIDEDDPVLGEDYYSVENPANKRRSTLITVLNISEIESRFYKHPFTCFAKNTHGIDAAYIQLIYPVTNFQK

B1: antibody 73C5 (antibody, V domains shown)
VH: QVQLKESGPGLVAPSQSLSITCTVSGFSLTNYAVHWVRQFPGKGLEWLGVIWSDGSTDFNAPFKSRLSINKDNSKSQVFFKMNSLQIDDTAIYYCARKGGYSGSWFAYWGQGTLVTVSA
VL: DIVMTQSQKFLSTSVGVRVSVTCKASQDVGTNVLWYQQKIGQSPKPLIYSASYRHSGVPDRFTGSGSGTDFTLIISNVQSEDLAEYFCQQYSRYPLTFGPGTKLELK
notes: Mouse monoclonal from hybridoma; also called 73C5C10; Mouse 73C5
B2: antibody 81A1 (antibody, V domains shown)
VH: QVQLKESGPGLVAPSQSLFITCTVSGFSLSSYEINWVRQVPGKGLEWLGVIWTGITTNYNSALISRLSISKDNSKSLVFLKMNSLQTDDTAIYYCARGTGTGFYYAMDYWGQGTSVTVSS
VL: DIQMTQTTSSLSASLGDRVTISCRASQDIYKYLNWYQQKPDGTLKLLIYYTSGLHSGVPSRFSGSGSGTDFSLTISNLEPEDIATYFCQQDSKFPWTFGGDTKLEIK
notes: Mouse monoclonal from hybridoma; also called 81A1D1; Mouse 81A1
B3: antibody 33D10 (antibody, V domains shown)
VH: QVQLQQSGTELLKPGASVKLSCKASGNTVTSYWMHWVKQRPGQGLEWIGEILPSTGRTNYNENFKGKAMLTVDKSSSTAYMQLSSLASEDSAVYYCTIVYFGNPWFAYWGQGTLVTVSA
VL: QIVLTQSPAIMSASLGERVTMTCTASSSVSSSYLHWYQKKPGSSPKLWVYSTSNLASGVPVRFSGSGSGTSYSLTISSMEAEDAATYYCHQHHRSPVTFGSGTKLEMK
notes: Mouse monoclonal from hybridoma; also called 33D10B12; Mouse 33D10

Experiments:
[1] = biological target: T1, human IL-36R on cells; assay: cell-based or functional assay
[2] = biological target: cynomolgus IL-36R on BaF/3 cells (cynomolgus, UniProt A0A2K5WSK9 20-558); assay: cell-based or functional assay
Chain of cynomolgus IL-36R on BaF/3 cells (A0A2K5WSK9 entry or part of it): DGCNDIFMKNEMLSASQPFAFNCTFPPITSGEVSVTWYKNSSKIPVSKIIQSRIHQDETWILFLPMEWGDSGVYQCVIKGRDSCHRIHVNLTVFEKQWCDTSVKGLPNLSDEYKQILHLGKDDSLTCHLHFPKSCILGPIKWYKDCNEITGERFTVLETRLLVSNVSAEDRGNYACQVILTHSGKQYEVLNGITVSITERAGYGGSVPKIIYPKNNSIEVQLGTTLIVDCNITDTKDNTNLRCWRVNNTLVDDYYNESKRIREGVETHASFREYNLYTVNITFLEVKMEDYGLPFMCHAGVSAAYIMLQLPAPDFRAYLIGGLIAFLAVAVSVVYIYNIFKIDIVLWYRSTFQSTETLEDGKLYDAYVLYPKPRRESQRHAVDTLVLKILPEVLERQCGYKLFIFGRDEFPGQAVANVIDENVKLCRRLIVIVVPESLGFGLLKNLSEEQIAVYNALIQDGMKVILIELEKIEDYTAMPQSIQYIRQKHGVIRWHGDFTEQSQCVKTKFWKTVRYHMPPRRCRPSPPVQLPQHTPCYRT

[3] = biological target: T1, human IL-36R on cells; assay: cell-based or functional assay; remark: listed apart in the source
[4] = biological target: T2, recombinant human IL-36R (ECD); assay: SPR (ProteOn), single IL-36R surface coat concentration
Experimental: A) Kinetics and binding affinities of anti-IL-36R antibodies binding to recombinant human IL-36R were measured using the Proteon (Bio-Rad, Hercules, Calif.) using material generated from hybridoma following single column purification. […] Binding of the chimeric anti-IL36R IgGs is equivalent to the respective mouse leads.

[5] = biological target: T3, mouse IL-36R; assay: BLI (Fortebio Octet), antibody injected over antigen surface
Experimental: (§1) B) Molecular selectivity over mouse IL-36R and human IL-1R1 The mouse and chimeric anti-IL-36R antibodies were also injected over either a mouse IL-36R or a human IL-1R1 surface at a concentration of 100 nM. The binding signal to mouse IL-36R and to human IL-1R1 for these antibodies measured using the Fortebio Octet (Fortebio, Menlo Park, Calif.) is zero, which indicates these antibodies selectively bind to human IL-36R.

[6] = biological target: T4, human IL-1R1; assay: as above
Experimental: as §1

[7] = biological target: T2, recombinant human IL-36R (ECD); assay: SPR (ProteOn), recombinant human IL-36R at 7 surface densities, global fit
Experimental: A) Kinetics and binding affinities of anti-IL-36R antibodies binding to recombinant human IL-36R were measured using the Proteon (Bio-Rad, Hercules, Calif.) using material generated from hybridoma following single column purification. […] The binding affinities of the mouse antibodies to human IL-36R run at 7 different surface densities (globally fit) is shown in Table 1. Binding of the chimeric anti-IL36R IgGs is equivalent to the respective mouse leads.

[8] = biological target: T1, human IL-36R on cells; assay: flow cytometry, HEK293 cells transfected with full-length human IL-36R
Experimental: HEK293 cells transfected with full-length human IL-36R or NCI/ADR-RES cells were passaged for 24 hours prior to staining. Cells were removed from flasks by rinsing with 10 ml of 5 mM EDTA in PBS, and then incubated at 37° C. for 10 min with an additional 10 ml of 5 mM EDTA and 2.5 ml of Accumax to declump/disperse cells. Antibodies were then diluted to specified concentrations in PBS+2% BSA, and cells incubated for 20 min at room temperature. Excess antibody was then washed by adding 200 μl of PBS and then centrifuged. Secondary reagent was then added at 50 μl per well and cells are incubated for 15 min at room temperature and then washed as above. Cells were resuspended in 200 μl PBS and analyzed by flow cytometry.

Row | Binder | IC90, GM-CSF release, NCI/ADR-RES cells, trun-IL-36a [1] | IC90, GM-CSF release, NCI/ADR-RES cells, trun-IL-36b [1] | IC90, GM-CSF release, NCI/ADR-RES cells, trun-IL-36g [1] | IC90, IL-6 release, NCI/ADR-RES cells, trun-IL-36a [1] | IC90, IL-6 release, NCI/ADR-RES cells, trun-IL-36b [1] | IC90, IL-6 release, NCI/ADR-RES cells, trun-IL-36g [1] | IC90, IL-8 release, NCI/ADR-RES cells, trun-IL-36a [1] | IC90, IL-8 release, NCI/ADR-RES cells, trun-IL-36b [1] | IC90, IL-8 release, NCI/ADR-RES cells, trun-IL-36g [1] | IC90, pNFκB, NCI/ADR-RES cells, trun-IL-36a [1] | IC90, pNFκB, NCI/ADR-RES cells, trun-IL-36b [1] | IC90, pNFκB, NCI/ADR-RES cells, trun-IL-36g [1] | IC90, pNFκB, BaF/3 cynomolgus IL-36R cells, trun-IL-36a [2] | IC90, pNFκB, BaF/3 cynomolgus IL-36R cells, trun-IL-36b [2] | IC90, pNFκB, BaF/3 cynomolgus IL-36R cells, trun-IL-36g [2] | IC90, IL-8 release, human primary keratinocytes (NHK), trun-IL-36a [3] | Kd [4] | binding result [5] | binding result [6] | Kd [7] | also measured
1 | B1 | 4.8 nM | 1.4 nM | 2 nM | 19 nM | 3.8 nM | 1.9 nM | 3.3 nM | 0.6 nM | 1.4 nM | 3.4 nM | 3.4 nM | 2.5 nM | 0.2 nM | 1.6 nM | 1.5 nM | 20.8 nM | < 0.1 nM | no binding (tested: 100 nM) | no binding (tested: 100 nM) | 0.057 nM | IC90, IL-8 release, human primary keratinocytes (NHK), trun-IL-36b [3]: 46 nM; IC90, IL-8 release, human primary keratinocytes (NHK), trun-IL-36g [3]: 2.4 nM; IC90, pNFκB, human primary keratinocytes (NHK), trun-IL-36a [3]: 10.7 nM; IC90, pNFκB, human primary keratinocytes (NHK), trun-IL-36b [3]: 14.4 nM; IC90, pNFκB, human primary keratinocytes (NHK), trun-IL-36g [3]: 1.7 nM
2 | B2 | 1.2 nM | 1.2 nM | 0.7 nM | 17 nM | 5.3 nM | 0.8 nM | 1.9 nM | 0.5 nM | 0.5 nM | 2.7 nM | 4.2 nM | 2.2 nM | 0.6 nM | 0.9 nM | 1 nM |  | < 0.1 nM | no binding (tested: 100 nM) | no binding (tested: 100 nM) | 0.016 nM | EC50 [8]: 0.28 nM
3 | B3 | 0.8 nM | 0.6 nM | 0.5 nM | 0.8 nM | 0.5 nM | 0.3 nM | 0.6 nM | 0.6 nM | 0.5 nM | 1.7 nM | 1.3 nM | 1.1 nM | > 4 µM | > 333 nM | > 333 nM | 1.5 nM | < 0.1 nM | no binding (tested: 100 nM) | no binding (tested: 100 nM) | 0.009 nM | IC90, IL-8 release, human primary keratinocytes (NHK), trun-IL-36b [3]: 3 nM; IC90, IL-8 release, human primary keratinocytes (NHK), trun-IL-36g [3]: 0.8 nM; IC90, pNFκB, human primary keratinocytes (NHK), trun-IL-36a [3]: 1.8 nM; IC90, pNFκB, human primary keratinocytes (NHK), trun-IL-36b [3]: 2.3 nM; IC90, pNFκB, human primary keratinocytes (NHK), trun-IL-36g [3]: 0.8 nM; EC50 [8]: 0.475 nM
